# Measurements as given in article PMC12191217, “Aptamer Development for SARS-CoV-2 and Omicron Variants Using the Spike Protein Receptor Binding Domain as a Potential Diagnostic Tool and Therapeutic Agent”.
# Target: SARS-CoV-2 spike RBD (Wuhan-Hu-1), His-tagged (SARS-CoV-2 (Wuhan-Hu-1 strain), UniProt P0DTC2 319-541)
# Test: BLI; 3 mM MgCl2; 10 mM phosphate pH 7.4, 137 mM NaCl, 2.7 mM KCl, 3 mM MgCl2, 0.01% BSA, 0.002% Tween 20, 25 °C; aptamer 175-1400 nM, n=2
# Details: protein: commercial; tags: His
row,Binder,Kd [nM]
1,GAUUUUAGUCAUAGUCAGUUAGGUGGUUUACAUCUACUGA (structured_RNA) [Aptamer 11],425 ± 146
2,GCUGGUGCUGCAGCUUAUUAUGUGGGUUAUCUUCAACCUA (structured_RNA) [Aptamer 22],5450 ± 1700
3,CACUACCAAGAGUGUGUUAGAGGUACAACAGUACUUUUAA (structured_RNA) [Aptamer 23],29300 ± 10400
4,GUUUCGGAAGAGACAGGUACGUUAAUAGUUAAUAGCGUAC (structured_RNA) [Aptamer 40],571 ± 173
5,GAUGGUAAUGCUGCUAUCAGCGAUUAUGACUACUAUCGUU (structured_RNA) [Aptamer 62],285 ± 141
